What was measured:
[1] = test system: CYP82E4 nicotine demethylase
[2] = test system: CYP82E10 nicotine demethylase; assay: Nicotine demethylase assay, yeast microsomal membranes with [14C]-nicotine, CYP82E10 and variants; format: biochemical, tobacco; set-up: Activity of Mutant Enzyme: concentration or dose not given beside the values; details: for Activity of Mutant Enzyme: relative to the wild type enzyme when expressed in yeast; for nicotine demethylase (enzyme) activity, result in words: [14C]-nicotine
Text: To determine whether CYP82E10 functions as a nicotine demethylase gene, its cDNA was cloned into the yeast expression vector pYeDP60 and transformed into yeast strain W(R). Strain W(R) is a yeast cell line that was engineered to overexpress the yeast NADPH-dependent P450 reductase, an enzyme that serves as the direct electron donor to P450s; this system greatly enhances the detection of foreign P450 enzyme activities that are expressed in yeast (Pompon et al., 1995). Nicotine demethylase assays were conducted by incubating yeast microsomal membrane preparations with [^14C]-nicotine, and resolving the products by thin layer chromatography as described in Siminszky et al. (2005).
The nucleotide and amino acid residues mutated in these plants are also highlighted in FIG. 1. Although no truncation mutations were observed among these individuals, in several cases, mutations were identified that altered an amino acid residue within a highly conserved region of the enzyme. To determine the effects of a particular mutation on CYP82E10 enzyme activity, site-directed mutagenesis was used to introduce the specific mutations corresponding to seven of the nine mutations shown in Table 2 into the CYP82E10 cDNA within the pYeDP60 yeast expression vector. Microsomal preparations from yeast strains expressing each of the seven CYP82E10 variants were assayed in vitro for nicotine demethylase activity using both non-saturating (2.45 μM) and saturating (50 μM) concentrations of [^14C]-nicotine.

Molecule	inhibition of nicotine demethylase activity (knocked out) [1] [%]	Activity of Mutant Enzyme [2]	nicotine demethylase (enzyme) activity, result in words ([2]; yeast microsomes)	reduction in activity compared to the wild type CYP82E10 enzyme ([2]; yeast microsomes, 2.45 μM and 50 μM [14C]-nicotine) [%]	loss of nicotine demethylase activity from mutation (knocked out) [2] [%]	nicotine demethylase activity relative to the wild-type CYP82E10 polypeptide [2]
CYP82E4 K364N: CYP82E4 variant with asparagine for lysine at position 364 (protein, listed as Nicotiana tabacum, CYP82E4 K364N Variant) MLSPIEAIVGLVTFTFLFFFLWTKKSQKPSKPLPPKIPGGWPVIGHLFHFNDDGDDRPLARKLGDLADKYGPVFTFRLGLPLVLVVSSYEAVKDCFSTNDAIFSNRPAFLYGDYLGYNNAMLFLANYGPYWRKNRKLVIQEVLSASRLEKFKHVRFARIQASIKNLYTRIDGNSSTINLTDWLEELNFGLIVKMIAGKNYESGKGDEQVERFKKAFKDFMILSMEFVLWDAFPIPLFKWVDFQGHVKAMKRTFKDIDSVFQNWLEEHINKREKMEVNAEGNEQDFIDVVLSKMSNEYLGEGYSRDTVIKATVFSLVLDAADTVALHINWGMALLINNQKALTKAQEEIDTKVGKDRWVEESDINDLVYLQAIVKEVLRLYPPGPLLVPHENVEDCVVSGYHIPKGTRLFANVMKLQRDPKLWSDPDTFDPERFIATDIDFRGQYYKYIPFGSGRRSCPGMTYALQVEHLTMAHLIQGFNYRTPNDEPLDMKEGAGITIRKVNPVELIIAPRLAPELY	100					
CYP82E4 W329Stop: CYP82E4 variant with stop codon for tryptophan at position 329 (protein, listed as Nicotiana tabacum, CYP82E4 W329Stop Variant) MLSPIEAIVGLVTFTFLFFFLWTKKSQKPSKPLPPKIPGGWPVIGHLFHFNDDGDDRPLARKLGDLADKYGPVFTFRLGLPLVLVVSSYEAVKDCFSTNDAIFSNRPAFLYGDYLGYNNAMLFLANYGPYWRKNRKLVIQEVLSASRLEKFKHVRFARIQASIKNLYTRIDGNSSTINLTDWLEELNFGLIVKMIAGKNYESGKGDEQVERFKKAFKDFMILSMEFVLWDAFPIPLFKWVDFQGHVKAMKRTFKDIDSVFQNWLEEHINKREKMEVNAEGNEQDFIDVVLSKMSNEYLGEGYSRDTVIKATVFSLVLDAADTVALHIN	100					
Plant 1442: CYP82E10 mutant enzyme P419S (mutation C1255T) from plant 1442 (protein, listed as Nicotiana tabacum, CYP82E10 P419S Variant) MVSPVEAIVGLVTLTLLFYFIRTKKSQKPSKPLPPKIPGGWPVIGHLFYFDDDSDDRPLARKLGDLADKYGPVFTFRLGLPLVLVVSSYEAIKDCFSTNDAIFSNRPAFLYGEYLGYNNAMLFLTKYGPYWRKNRKLVIQEVLCASRLEKLKHVRFGEIQTSIKNLYTRIDGNSSTINLTDWLEELNFGLIVKMIAGKNYESGKGDEQVERFRKAFKDFIILSMEFVLWDAFPIPLFKWVDFQGHVKAMKRTFKDIDSVFQNWLEEHVKKKEKMEVNAEGNEQDFIDVVLSKMSNEYLDEGYSRDTVIKATVFSLVLDAADTVALHMNWGMALLINNQHALKKAQEEIDKKVGKDRWVEESDIKDLVYLQTIVKEVLRLYPPGPLLVPHENVEDCVVSGYHIPKGTRLFANVMKLQRDSKLWSNPDKFDPERFFAADIDFRGQHYEFIPFGSGRRSCPGMTYAMQVEHLTIAHLIQGFNYKTPNDEPLDMKEGAGLTIRKVNPIEVVITPRLTPELY		25%		75		about 25%
Plant 1512: CYP82E10 mutant enzyme P107S (mutation C319T) from EMS treated DH98-325-6 plant 1512 (protein, listed as Nicotiana tabacum, CYP82E10 P107S Variant) MVSPVEAIVGLVTLTLLFYFIRTKKSQKPSKPLPPKIPGGWPVIGHLFYFDDDSDDRPLARKLGDLADKYGPVFTFRLGLPLVLVVSSYEAIKDCFSTNDAIFSNRSAFLYGEYLGYNNAMLFLTKYGPYWRKNRKLVIQEVLCASRLEKLKHVRFGEIQTSIKNLYTRIDGNSSTINLTDWLEELNFGLIVKMIAGKNYESGKGDEQVERFRKAFKDFIILSMEFVLWDAFPIPLFKWVDFQGHVKAMKRTFKDIDSVFQNWLEEHVKKKEKMEVNAEGNEQDFIDVVLSKMSNEYLDEGYSRDTVIKATVFSLVLDAADTVALHMNWGMALLINNQHALKKAQEEIDKKVGKDRWVEESDIKDLVYLQTIVKEVLRLYPPGPLLVPHENVEDCVVSGYHIPKGTRLFANVMKLQRDPKLWSNPDKFDPERFFAADIDFRGQHYEFIPFGSGRRSCPGMTYAMQVEHLTIAHLIQGFNYKTPNDEPLDMKEGAGLTIRKVNPIEVVITPRLTPELY		Not detected	complete enzyme inactivation		100	

More lines, main results first:

inhibition of nicotine demethylase activity (knocked out) [1] [%]	Activity of Mutant Enzyme [2]	nicotine demethylase (enzyme) activity, result in words ([2]; yeast microsomes)	reduction in activity compared to the wild type CYP82E10 enzyme ([2]; yeast microsomes, 2.45 μM and 50 μM [14C]-nicotine) [%]	loss of nicotine demethylase activity from mutation (knocked out) [2] [%]	Molecule	nicotine demethylase activity relative to the wild-type CYP82E10 polypeptide [2]
	100%	did not alter enzyme activity			Plant 693: CYP82E10 mutant enzyme R417H (mutation G1250A) from plant 693 (protein, listed as Nicotiana tabacum, CYP82E10 R417H Variant) MVSPVEAIVGLVTLTLLFYFIRTKKSQKPSKPLPPKIPGGWPVIGHLFYFDDDSDDRPLARKLGDLADKYGPVFTFRLGLPLVLVVSSYEAIKDCFSTNDAIFSNRPAFLYGEYLGYNNAMLFLTKYGPYWRKNRKLVIQEVLCASRLEKLKHVRFGEIQTSIKNLYTRIDGNSSTINLTDWLEELNFGLIVKMIAGKNYESGKGDEQVERFRKAFKDFIILSMEFVLWDAFPIPLFKWVDFQGHVKAMKRTFKDIDSVFQNWLEEHVKKKEKMEVNAEGNEQDFIDVVLSKMSNEYLDEGYSRDTVIKATVFSLVLDAADTVALHMNWGMALLINNQHALKKAQEEIDKKVGKDRWVEESDIKDLVYLQTIVKEVLRLYPPGPLLVPHENVEDCVVSGYHIPKGTRLFANVMKLQHDPKLWSNPDKFDPERFFAADIDFRGQHYEFIPFGSGRRSCPGMTYAMQVEHLTIAHLIQGFNYKTPNDEPLDMKEGAGLTIRKVNPIEVVITPRLTPELY	
	100%	did not alter enzyme activity			Plant 1035: CYP82E10 mutant enzyme A344T (mutation G1030A) from plant 1035 (protein, listed as Nicotiana tabacum, CYP82E10 A344T Variant) MVSPVEAIVGLVTLTLLFYFIRTKKSQKPSKPLPPKIPGGWPVIGHLFYFDDDSDDRPLARKLGDLADKYGPVFTFRLGLPLVLVVSSYEAIKDCFSTNDAIFSNRPAFLYGEYLGYNNAMLFLTKYGPYWRKNRKLVIQEVLCASRLEKLKHVRFGEIQTSIKNLYTRIDGNSSTINLTDWLEELNFGLIVKMIAGKNYESGKGDEQVERFRKAFKDFIILSMEFVLWDAFPIPLFKWVDFQGHVKAMKRTFKDIDSVFQNWLEEHVKKKEKMEVNAEGNEQDFIDVVLSKMSNEYLDEGYSRDTVIKATVFSLVLDAADTVALHMNWGMALLINNQHALKKTQEEIDKKVGKDRWVEESDIKDLVYLQTIVKEVLRLYPPGPLLVPHENVEDCVVSGYHIPKGTRLFANVMKLQRDPKLWSNPDKFDPERFFAADIDFRGQHYEFIPFGSGRRSCPGMTYAMQVEHLTIAHLIQGFNYKTPNDEPLDMKEGAGLTIRKVNPIEVVITPRLTPELY	
	100%	did not alter enzyme activity			Plant 817: CYP82E10 mutant enzyme A410T (mutation G1228A) from plant 817 (protein, listed as Nicotiana tabacum, CYP82E10 A410T) MVSPVEAIVGLVTLTLLFYFIRTKKSQKPSKPLPPKIPGGWPVIGHLFYFDDDSDDRPLARKLGDLADKYGPVFTFRLGLPLVLVVSSYEAIKDCFSTNDAIFSNRPAFLYGEYLGYNNAMLFLTKYGPYWRKNRKLVIQEVLCASRLEKLKHVRFGEIQTSIKNLYTRIDGNSSTINLTDWLEELNFGLIVKMIAGKNYESGKGDEQVERFRKAFKDFIILSMEFVLWDAFPIPLFKWVDFQGHVKAMKRTFKDIDSVFQNWLEEHVKKKEKMEVNAEGNEQDFIDVVLSKMSNEYLDEGYSRDTVIKATVFSLVLDAADTVALHMNWGMALLINNQHALKKAQEEIDKKVGKDRWVEESDIKDLVYLQTIVKEVLRLYPPGPLLVPHENVEDCVVSGYHIPKGTRLFTNVMKLQRDPKLWSNPDKFDPERFFAADIDFRGQHYEFIPFGSGRRSCPGMTYAMQVEHLTIAHLIQGFNYKTPNDEPLDMKEGAGLTIRKVNPIEVVITPRLTPELY	
	Not detected	complete enzyme inactivation		100	Plant 2476: CYP82E10 mutant enzyme G79S (mutation G235A) from EMS treated DH98-325-6 plant 2476 (protein, listed as Nicotiana tabacum, CYP82E10 G79S Variant) MVSPVEAIVGLVTLTLLFYFIRTKKSQKPSKPLPPKIPGGWPVIGHLFYFDDDSDDRPLARKLGDLADKYGPVFTFRLSLPLVLVVSSYEAIKDCFSTNDAIFSNRPAFLYGEYLGYNNAMLFLTKYGPYWRKNRKLVIQEVLCASRLEKLKHVRFGEIQTSIKNLYTRIDGNSSTINLTDWLEELNFGLIVKMIAGKNYESGKGDEQVERFRKAFKDFIILSMEFVLWDAFPIPLFKWVDFQGHVKAMKRTFKDIDSVFQNWLEEHVKKKEKMEVNAEGNEQDFIDVVLSKMSNEYLDEGYSRDTVIKATVFSLVLDAADTVALHMNWGMALLINNQHALKKAQEEIDKKVGKDRWVEESDIKDLVYLQTIVKEVLRLYPPGPLLVPHENVEDCVVSGYHIPKGTRLFANVMKLQRDPKLWSNPDKFDPERFFAADIDFRGQHYEFIPFGSGRRSCPGMTYAMQVEHLTIAHLIQGFNYKTPNDEPLDMKEGAGLTIRKVNPIEVVITPRLTPELY	

From patent US12310324B2, “Compositions and methods for minimizing nornicotine synthesis in tobacco” (North Carolina State University, priority 2010, dated 2025)
